Results on 3 molecules are retold here after patent US10640556B2, “Anti amphiregulin antibodies, compositions comprising same and uses thereof” (Yeda Research and Development Co. Ltd., priority 2015, dated 2020).

Experiment [1] deals with T1, EGFR (Homo sapiens, UniProt P00533). Kind of experiment: Ligand-induced receptor ubiquitination assay (MCAS, MLS, H358, A549 cells). It is filed as cell-based. Details: endogenous in cells; host or cells: MCAS, MLS, H358, A549. To be noted: 10 minutes, ligand 100 ng/mL; MCAS, MLS, H358, A549 cells. The protocol: (§1) The cells were later washed and lysed, and the associated radioactivity was determined. […] The cells were later washed and lysed in 1 N NaOH. Cell-associated radioactivity was determined. […] Washed immunocomplexes, along with whole extracts, were immunoblotted with the indicated antibodies.
For determination of ligand-induced receptor ubiquitination, cells were extracted in lysis buffer (50 mM HEPES pH 7.5, 150 mM NaCl, 10% glycerol, 1% Triton X-100, 1 mM EDTA, 1 mM EGTA, 10 mM NaF and 30 mM 3-glycerol phosphate) with freshly added 0.2 mM Na3VO4, a protease inhibitor cocktail and 2 mM N-ethylmaleimide (NEM). Twenty μL of protein G agarose beads and 1 μg of antibody were added to 500 μg of protein lysate. After a 2 hour incubation at 4° C., the immunoprecipitates were collected by centrifugation at 14,000 rpm at 4° C. for 1 minute. The supernatant was discarded and the pellet was washed thrice, prior to electrophoresis.

Experiment [2] addresses T1, EGFR. Nature of the experiment: Receptor downregulation assay in MCAS cells. It is filed as cell-based. Details: endogenous in cells; host or cells: MCAS, MLS, H358, A549. To be noted: ligand 10 ng/ml. The procedure:
as §1
At the end of the incubation period, the cells were placed on ice, washed with ice cold medium and subjected to mild acid wash (0.2 M Na-acetate buffer, pH 4.5, and 0.5 M NaCl) for 2 minutes, followed by 2 washes in ice cold medium. […] Finally, cells were lysed in 1 N NaOH, and their radioactivity was determined.

The test system of experiment [3] is EGFR. Nature of the experiment: AREG-induced EGFR phosphorylation in HeLa cells (immunoblot). To be noted: for AREG-induced phosphorylation of EGFR: AREG 100 ng/ml, mAb 0.1-50 μg/ml, FIG. 10A. It is filed as cell-based, human. The protocol: FIGS. 6A-6F illustrate AR30, an anti-AREG monoclonal antibody, that inhibits auto-phosphorylation of EGFR. FIG. 6A is a photograph of a Coomassie blue staining of an acrylamide gel showing a purified fraction of AREG isolated from bacteria and purified on a NiNTA column. The molecular weight marker lane indicates a 15 kilodalton band; FIG. 6B, cells were seeded in a 24 well plate, washed and incubated with increasing concentrations of the purified TRX-AREG fusion protein (8.5, 85, 850, 8500 ng/ml). […] Following a 10-min long incubation, the cells were lysed and cleared extracts immunoblotted (IB) with an anti-phosphotyrosine antibody (PY-99); FIG. 6C, 96 well plates were coated with the indicated ligands (0.1 μg/ml), and then incubated for 3 hours with three different mAbs specific to AREG. Thereafter, wells were incubated for two hours with an anti-mouse antibody conjugated to HRP, followed by a 30 minutes incubation with ATBS. […] Serum from non-immunized mice was used as a negative control; FIG. 6E, HeLa cells were pre-incubated with (or without) mAb AR30 (20 μg/mL) and increasing concentrations of AREG. Thereafter, whole cell lysates were immunoblotted (IB) using an antibody specific to the phosphorylated form of EGFR (tyrosine 1068) or an antibody to EGFR; and FIG. 6F, HeLa cells were incubated with (or without) AREG (100 ng/mL) in the presence of increasing concentrations of mAb AR30 (5, 10, 20 and 50 μg/mL). Thereafter, cells were lysed and cleared extracts immunoblotted (IB) using the indicated antibodies.
FIG. 10A illustrates that anti-AREG mAbs inhibit ligand-induced activation of EGFR. HeLa cells were incubated with (or without) AREG (100 ng/ml) in the presence of increasing concentrations of mAb AR30, mAb AR 37 or mAb AR558 (0.1, 0.2, 0.5, 0.75, 1.5, 3.5, 6.25, 12.5, 25 and 50 μg/ml). Thereafter, cells were lysed and cleared extracts immunoblotted (IB) using the indicated antibodies, including an antibody specific to the phosphorylated (active) for of EGFR (pEGFR).
(In general: A western blot detects proteins with antibodies after separation by electrophoresis.)

Experiment [4] concerns the target T2, human AREG (Homo sapiens, UniProt P15514).
T2 sequence (P15514 101-198 limits assumed): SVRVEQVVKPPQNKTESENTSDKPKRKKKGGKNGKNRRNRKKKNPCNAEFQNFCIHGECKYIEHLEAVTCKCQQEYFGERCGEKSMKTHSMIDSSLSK
Nature of the experiment: Plasmon resonance and immunoblotting of EGF-family ligands with AR30. It is filed as binding. The procedure:
FIGS. 6A-6F illustrate AR30, an anti-AREG monoclonal antibody, that inhibits auto-phosphorylation of EGFR. FIG. 6A is a photograph of a Coomassie blue staining of an acrylamide gel showing a purified fraction of AREG isolated from bacteria and purified on a NiNTA column. The molecular weight marker lane indicates a 15 kilodalton band; FIG. 6B, cells were seeded in a 24 well plate, washed and incubated with increasing concentrations of the purified TRX-AREG fusion protein (8.5, 85, 850, 8500 ng/ml). […]
SPR was performed on a BIAcore 3000 instrument (BIAcore, Uppsala, Sweden). […] The net signal was obtained by subtracting the blank signal (plain dextran matrix) from the signal recorded from the immobilized surface. The association phase for analyte binding to all ligands was followed for 4 minutes, and dissociation phases were monitored for 3 minutes. […] The response was monitored as a function of time (sensorgram). […]
To functionally characterize a selected anti-AREG mAb, its specificity was tested using an Enzyme-Linked Immunosorbent Assay (ELISA) assay covered with different ligands. […] The AR30 affinity to the different ligand was assessed by Surface plasmon resonance (SPR).

Experiment [5] relates to Cal-27 human head and neck cancer cells. Nature of the experiment: Cal-27 head and neck tumor xenograft in nude mice. It is filed as in vivo. To be noted: Cal-27 tumors, 300 μg per injection intraperitoneally twice a week. The protocol: Female nude mice were inoculated subcutaneously with Cal-27 human head and neck cancer cells (2×10^6). Once tumors became palpable (5-7 days) mice were randomized and intraperitoneally injected with saline (Control), or with anti-AR mAbs: AR30, AR37 or AR558 (each at 300 μg per injection). Mice were treated with mAbs twice a week and tumor volume was followed. Shown are averages and SD values from at least 5 mice per group.
To test the ability of anti-AREG antibodies to reduce growth of human tumor cells implanted in immunocompromised mice, Cal 27 tumor cells were used which were inoculated subcutaneously and randomized for treatment after tumors became palpable. […] Furthermore, studies testing pairs of two mAbs illustrate their enhanced anti-tumor activities (data not shown), this can be attributed to the fact that the mAbs bind to distinct antigenic determinants of amphiregulin.

Experiment [6] concerns the target T2, human AREG. Nature of the experiment: Antigenic determinant comparison of anti-AREG mAbs. It is filed as binding. The following applies: data not shown.
Another experiment relates to MLS ovarian cancer cells. Nature of the experiment: MLS ovarian tumor xenograft in nude mice. It is filed as in vivo. The following applies: MLS tumors. The protocol:
FIG. 7A, female nude mice (6 weeks old) were inoculated subcutaneously with MLS ovarian cancer cells (2×10^6 per animal). Once tumors became palpable, mice were randomized into two groups. Eleven mice were injected intraperitoneally with an anti-AREG mAb (AR30; 200 μg/mouse; twice a week, on days: 8, 11, 14, 17, and 21). The control group also included 11 mice. Shown are means±S.D. values; FIG. 7B, female nude mice (6 weeks old) were inoculated subcutaneously with MLS ovarian cancer cells (2×10^6 per animal). Once tumors became palpable, mice were randomized into four groups. One group (8 mice) was injected intraperitoneally with the AR30 mAb (100 μg/mouse twice a week, on days: 8, 14, 17, 21, 24 and 28). Another group (8 mice) was treated with cisplatin (5 mg/kg; on days 8 and 21). The fourth group was treated with a combination of mAb AR30 and cisplatin. The control group included 12 mice; and FIG. 7C, the indicated MLS tumors were excised, and their average weights determined. Representative tumors were photographed.
All animal procedures were approved by the Weizmann Institute of Science's review board. Female athymic NCr-nude mice (6 weeks old) were inoculated subcutaneously with 2×10^6 human ovarian MLS cancer cells. Once tumors became palpable (5-7 days), the mice were randomized into groups and injected intraperitoneally at the indicated time points with the indicated monoclonal antibodies, chemotherapy or the combination. Tumor volumes were monitored twice a week, and body weights were measured once a week.

The subject of the next experiment is MCF10A cells. Nature of the experiment: MTS proliferation assay of MCF10A cells. To be noted: 72 h, absence or presence of AREG, relatively high mAb concentrations. It is filed as cell-based, human. The procedure:
Proliferation assays using MTS were performed on MCF10A cells (1,000 cells per well). C ells were plated on the day before and treated for 72 h with the indicated mAbs (1, 5, 10, 20 or 50 ug/mL). Increasing concentrations of the indicated mAbs (either alone or in combination with AREG) were used in medium supplemented with 1% serum and AREG (either at 10 or 100 ng/mL).
(In general: Tetrazolium assays rely on reduction of a dye to a coloured formazan, in cell work by metabolically active cells.)

In the case of “TGF-alpha: transforming growth factor alpha, high-affinity EGFR ligand”, in the experiment with EGFR [1], the “ubiquitination of EGFR” value was “strong ubiquitination”. In addition, the EGFR downregulation in the experiment with EGFR [2] is 70-75%.

B1: AR30: anti-AREG monoclonal antibody; heavy chain SEQ ID NO: 2, light chain SEQ ID NO: 16 (antibody, V domains shown)
VH: EVQLQQSGAELVRSGASVKLSCTASGFNIKDSYMHWVKQRPEQGLEWIGWVDPDNGDTEYAPEFQGRATLTADTFSSTAYLQLTSLTSEDTAVYYCNAPSTYGHYGFAYWGQGTLVTVSA
VL: DIVMTQAAPSVPVTPGESVSISCRSSKSLLHSNGKAYLYWFLQRPGQSPQLLIYRMSNLASGVPDRFSGSGSGTAFTLRISRVEAEDVGVYYCMQHLEYPLTFGAGTKLELKR
modifications: AR30 heavy chain (IgG) complete amino acids coding sequence; AR30 light chain (kappa) complete amino acids coding sequence
On to B1, for which the “effect of AREG on receptor phosphorylation” value in the experiment on EGFR [3] (AR30 5-50 μg/mL, FIGS. 6E-6F) was “only partially reduced”. Also, the “AREG-induced phosphorylation of EGFR” value in the experiment with EGFR [3] is “low concentrations of the antibodies were sufficient for blocking”. Also, the “downstream signaling to ERK (phosphorylated ERK)” value in the experiment with EGFR [3] (data not shown) is listed as “insufficient for blocking downstream signaling to ERK”. The “binding of AR30 with human AREG” value with human AREG [4] is given as “high affinity binding”. Besides, the “recognition of other EGFR ligands” value with human AREG [4] was “recognized no other EGFR ligand, except for the human form of HB-EGF”. In addition, the tumor growth entry in experiment [5] is listed as “comparably inhibit tumor growth”; in the experiment with MLS ovarian cancer cells (AR30 100 μg/mouse twice a week, cisplatin 5 mg/kg, FIG. 7B) it was “only mildly inhibited”; with MLS ovarian cancer cells (antibodies injected into the peritoneum, six weeks, data not shown) it was “partly inhibited tumor growth”. For the same molecule, in the experiment with human AREG [6], the antigenic determinant targeted result is reported as “engages a different determinant of human AREG”. Also, in the experiment with MLS ovarian cancer cells (six weeks, data not shown), the “anti-tumor effect compared with cetuximab” value was “at least as effective as cetuximab”. In addition, in the experiment on MCF10A cells, the inhibition of proliferation entry was “Moderate inhibition”.

B2: AR558: anti-AREG monoclonal antibody from AREG knockout mice; heavy chain SEQ ID NO: 30, light chain SEQ ID NO: 46 (antibody, V domains shown)
VH: EVQLQQSGAELVKPGASVKLSCTASGFNIKDTYMHWVKQRPEQGLEWIGRIDPANRSTKYDPKFQGKATITADTSSNTADLHLSSLTSEDTAVYYCARLYGDSVWYFDVWGAGTTVTVSSAKT
VL: QIVLTQSPAILSASPGEKVTMTCRAGSSVNYIHWYQQKPGSSPKPWIYATSNLASGVPARFSGSGSGTSYSLTISRVEAEDAATYYCQQWSGYPPMLTFGAGTKLELKR
modifications: AR558 heavy chain IgG complete amino acids coding sequence; AR558 light chain (kappa) complete amino acids coding sequence
As to B2, the “AREG-induced phosphorylation of EGFR” value in the experiment with EGFR [3] is “low concentrations of the antibodies were sufficient for blocking”. Besides, the tumor growth result in experiment [5] is given as “exceeded the activity of either antibody”. For the same molecule, in the experiment with human AREG [6], the antigenic determinant targeted result is given as “engages a different determinant of human AREG”. Further, the inhibition of proliferation result in the experiment with MCF10A cells is listed as “Moderate inhibition”.
